Assay [1] deals with T1, hNotch2 (EGF6-13, residues 221-530), biotinylated (human, UniProt Q04721 221-530, Biotinylated in vitro by BirA at the C-terminal BAP-tag (tag not in the letters).).
T1 construct: Immobilised on a streptavidin chip for SPR
T1 sequence: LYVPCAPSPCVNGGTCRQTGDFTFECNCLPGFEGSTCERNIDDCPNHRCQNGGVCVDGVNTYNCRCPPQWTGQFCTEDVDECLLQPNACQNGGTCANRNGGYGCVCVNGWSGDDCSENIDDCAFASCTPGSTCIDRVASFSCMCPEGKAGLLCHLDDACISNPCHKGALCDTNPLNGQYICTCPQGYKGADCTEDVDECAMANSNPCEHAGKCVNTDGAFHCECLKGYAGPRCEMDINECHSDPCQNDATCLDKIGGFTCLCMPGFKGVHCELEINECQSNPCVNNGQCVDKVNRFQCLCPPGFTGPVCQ
Nature of the assay: SPR (Biacore T200), biotinylated Notch fragment on streptavidin chip, DLL4 protein (N-EGF5) in flow, 1:1 model. The method, then:
The rapid dissociation of WT DLL4 precluded kinetic fitting of the binding data.
Equilibrium dissociation constants were determined by surface plasmon resonance using a Biacore T200 instrument (GE Healthcare). Approximately 100 resonance units (RU) of biotinylated Notch extracellular fragments (Notch1 (EGF6-13), Notch2 (EGF6-13), Notch3 (EGF5-12), Notch4 (7-12), and mouse Notch1 (EGF6-13)) were immobilized on individual flow cells at 5 μl/min using a streptavidin-coated sensor chip (Series S Sensor chip SA, GE Healthcare). Three-fold serial dilutions of recombinant DLL4 proteins (N-EGF5) starting at 50 μM (WT DLL4), 18 μM (DLL4.v2), and 6 μM (DLL4.v1 and Delta^MAX) were flowed over the chip at 25° C. in SPR buffer (20 mM HEPES pH 7.4, 150 mM NaCl, 1 mM calcium chloride, 0.1% BSA supplemented with 0.005% surfactant P20). Association (“on-rate”) and dissociation (“off-rate”) phases were performed at 10 μl/min for 120 seconds and 300 seconds, respectively. […] Data collection rate was performed at 10 Hz, and curves were reference-subtracted from a flow cell containing 100 RU of a negative control non-related protein (biotinylated mouse RNF43 PA domain). The maximum RU for each experiment was normalized to a value of 100% and plotted as a function of concentration using Prism 9 software (GraphPad). Steady-state binding and kinetic curves were fitted using the Biacore T200 evaluation software to a 1:1 Langmuir model to determine the KD values.

Assay [2] deals with T2, mouse Notch1 (EGF6-13, residues 221-526), biotinylated (mouse, UniProt Q01705 221-526, Biotinylated in vitro by BirA at the C-terminal BAP-tag (tag not in the letters).).
T2 construct: Immobilised on a streptavidin chip for SPR; also called mNotch1 EGF6-13; mNotch1 (6-13)
T2 sequence: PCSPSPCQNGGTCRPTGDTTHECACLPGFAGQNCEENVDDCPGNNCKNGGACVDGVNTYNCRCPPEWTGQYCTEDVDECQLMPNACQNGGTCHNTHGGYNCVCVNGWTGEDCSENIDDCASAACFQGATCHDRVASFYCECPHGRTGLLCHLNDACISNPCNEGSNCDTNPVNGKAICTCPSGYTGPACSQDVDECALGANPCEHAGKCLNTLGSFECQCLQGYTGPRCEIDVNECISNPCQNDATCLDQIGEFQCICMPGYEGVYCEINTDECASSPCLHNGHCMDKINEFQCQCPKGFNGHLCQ
The assay can be described thus: SPR (Biacore T200), biotinylated mNotch1 EGF6-13 on streptavidin chip, DLL4 protein (N-EGF5) in flow, 1:1 model. The method, then: The binding affinity was measured between each DLL4 variant and the EGF6-13 region of murine Notch1 (mNotch1 EGF6-13) to test for cross-species reactivity (FIGS. 2B, 10, 11A). […] Lastly, the binding of Delta^MAX to full-length, cell surface-expressed Notch1 was assessed.
Equilibrium dissociation constants were determined by surface plasmon resonance using a Biacore T200 instrument (GE Healthcare). Approximately 100 resonance units (RU) of biotinylated Notch extracellular fragments (Notch1 (EGF6-13), Notch2 (EGF6-13), Notch3 (EGF5-12), Notch4 (7-12), and mouse Notch1 (EGF6-13)) were immobilized on individual flow cells at 5 μl/min using a streptavidin-coated sensor chip (Series S Sensor chip SA, GE Healthcare). Three-fold serial dilutions of recombinant DLL4 proteins (N-EGF5) starting at 50 μM (WT DLL4), 18 μM (DLL4.v2), and 6 μM (DLL4.v1 and Delta^MAX) were flowed over the chip at 25° C. in SPR buffer (20 mM HEPES pH 7.4, 150 mM NaCl, 1 mM calcium chloride, 0.1% BSA supplemented with 0.005% surfactant P20). Association (“on-rate”) and dissociation (“off-rate”) phases were performed at 10 μl/min for 120 seconds and 300 seconds, respectively. […] Data collection rate was performed at 10 Hz, and curves were reference-subtracted from a flow cell containing 100 RU of a negative control non-related protein (biotinylated mouse RNF43 PA domain). […]
A general note: Surface plasmon resonance follows binding to a sensor surface in real time, without labels.

Assay [3] deals with T2, mouse Notch1 (EGF6-13, residues …). The assay can be described thus: SPR steady-state binding isotherm, biotinylated mNotch1 (EGF6-13) on a streptavidin chip, DLL4 variant as analyte, response normalized to the maximum (100%). The source says:
Extended Data FIG. 5. Quantitation of mNotch1 binding to DLL4 variants, ligand adsorption, and Notch surface expression. a, SPR binding isotherms were fitted to a 1:1 binding model to determine the binding affinity between mNotch1 (6-13) and each DLL4 variant. b, Determination of plate adsorption for WT DLL4 and Delta^MAX by ELISA. Data represent mean values±s.d. of three biological replicates. c, Binding assay of WT DLL4 and Delta^MAX tetramers to Notch1 overexpressing CHO-K1 N1-Gal4 cells was measured by flow cytometry. Data represent mean values±s.d. of three biological replicates. d, The level of Notch1 expression on the surface of cell lines used in this study was determined by flow cytometry. Data represent mean values±s.d. of three biological replicates. e, Percentage of CD8⁺ T cells expressing Notch1 (upper graph) and Notch2 (bottom graph) on cell surface determined by flow cytometry after stimulation with K32-WT DLL4, K32-Delta^MAX, or K32 for 96 hours. Data represent mean values±s.e.m. of three biological replicates. Delta^MAX statistics are referred to WT DLL4. *P<0.05, ****P<0.0001 (Two-way ANOVA).
Equilibrium dissociation constants were determined by surface plasmon resonance using a Biacore T200 instrument (GE Healthcare). […]

The term Kd denotes the free concentration of one partner at which half of the binding sites on the other are occupied at equilibrium, for simple one-to-one binding. What is called EC50 (read off the curve) is the concentration giving half of the maximal effect. Read a high EC50 (read off the curve) as a need for much substance.

B1: Delta^MAX (N-EGF5), non-biotinylated (ligand)
chain: SSVFQLQLQEFINERGVLASGRPCEPGCRTFFRVCLKHFQAVVSPGPCTFGTVSTPVLGTNSFAVRDDSSGGGRNPLQLPLNFTWPGTFSLIIEAWHAPGDDLRPEALPPDALISKFAIQGSLAVGQNWLLDEQTSTLTRLRYSYRVICSDNYYGDNCSRLCKKRNDYFGHYVCQPDGNPSCLPGWTGEYCQQPICLSGCHEQNGYCSKPAECLCRPGWQGRLCNECIPHPGCRHGTCSTPWQCLCDEGWGGLYCDQDLNYCTHHSPCKNGATCRNSGPRSYTCTCRPGYTGVDCELELSECDSNPCRNGGSCKDQEDGYHCLCPPGYYGLHCEHSTLSCADSPCFNGGSCRERNQGANYACECPPNFTGSNCEHHHHHHHH
notes: also called DLL4^MAX; soluble Delta^MAX
Regarding B1, the Kd was 54 nM in assay [1] and 25 nM in assay [2]. In addition, in assay [3], the “EC50 (read off the curve)” value was about 20 nM.

The record behind these values is patent US20260055369A1 (H LEE MOFFITT CANCER CENTER AND RESEARCH INSTITUTE, published 2026).
